B3: FKBP51 (natural protein, UniProt Q13451 1-457, looked up)
chain: MTTDEGAKNNEESPTATVAEQGEDITSKKDRGVLKIVKRVGNGEETPMIGDKVYVHYKGKLSNGKKFDSSHDRNEPFVFSLGKGQVIKAWDIGVATMKKGEICHLLCKPEYAYGSAGSLPKIPSNATLFFEIELLDFKGEDLFEDGGIIRRTKRKGEGYSNPNEGATVEIHLEGRCGGRMFDCRDVAFTVGEGEDHDIPIGIDKALEKMQREEQCILYLGPRYGFGEAGKPKFGIEPNAELIYEVTLKSFEKAKESWEMDTKEKLEQAAIVKEKGTVYFKGGKYMQAVIQYGKIVSWLEMEYGLSEKESKASESFLLAAFLNLAMCYLKLREYTKAVECCDKALGLDSANEKGLYRRGEAQLLMNEFESAKGDFEKVLEVNPQNKAARLQISMCQKKAKEHNERDRRIYANMFKKFAEQDAKEEANKAMGKKTSEGVTNEKGTDSQAMEEEKPEGHV
notes: FKBP51, 51 kDa, with the FK1, FK2 and TPR domains; all three domains and residues 426-457 are spoken of, which fits the whole 457-residue protein; Used unlabeled or with 13C-methyl (Leu, Val) labels; also called free FKBP51; LV-labeled FKBP51; source: grown in LB or M9 medium, IPTG-induced; purified (His-trap, HRV 3C cut of the His-tag, size exclusion chromatography)

Conditions in all cases: both partners purified
Assay [1] addresses T1, 441-residue human 2N4R tau (human, UniProt P10636-8 1-441).
T1 construct: tau, human, 2N4R isoform, printed length 441 residues; Used unlabeled or 15N-labeled; source: grown in LB or M9 medium, IPTG-induced; purified (boiling, ammonium sulfate, Mono S ion exchange, reverse phase HPLC), lyophilized
The assay can be described thus: NMR titration; 1H-15N HSQC of 15N-labeled tau (20 or 30 µM); unlabeled p23 or p23 (1-119) added up to ten-fold molar excess; 50 mM NaP, 10 mM NaCl, 1 mM DTT, pH 6.8, 278 K.

The target of the assay “FKBP51” is B3. Description: NMR titration; 1H-15N TROSY HSQC of deuterated 15N-labeled p23 (WT 40 µM, 1-119 25 µM, R88A R93A 40 µM); unlabeled FKBP51 added at equimolar to three-fold or five-fold molar excess; 25 mM HEPES, 10 mM KCl, 5 mM MgCl2, 1 mM DTT, pH 7.2, 303 K.
Assay [2] deals with T1, 441-residue human 2N4R tau. Description: cross-linking; p23:FKBP51:tau 1:1:1 (25 µM each), 1 mM DSS, 30 min at 25 °C; SDS-PAGE band above 220 kDa cut out, trypsin digest, mass spectrometry (pLink).

T1 sequence (P10636 other isoform, or with tags, fused parts or gaps): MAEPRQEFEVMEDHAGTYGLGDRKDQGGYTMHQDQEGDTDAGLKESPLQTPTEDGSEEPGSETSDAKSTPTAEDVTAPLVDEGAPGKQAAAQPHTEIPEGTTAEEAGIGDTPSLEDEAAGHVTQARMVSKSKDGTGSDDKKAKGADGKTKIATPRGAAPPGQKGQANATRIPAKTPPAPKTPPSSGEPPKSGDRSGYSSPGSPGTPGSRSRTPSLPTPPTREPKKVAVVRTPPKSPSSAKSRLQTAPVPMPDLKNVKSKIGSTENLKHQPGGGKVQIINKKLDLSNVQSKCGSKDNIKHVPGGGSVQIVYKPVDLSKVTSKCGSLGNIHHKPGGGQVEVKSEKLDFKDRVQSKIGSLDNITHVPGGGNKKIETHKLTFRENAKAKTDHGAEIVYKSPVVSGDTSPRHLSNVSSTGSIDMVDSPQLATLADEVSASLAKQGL

B1: p23 wild-type (human co-chaperone p23, 160 amino acids) (natural protein, UniProt Q15185 1-160, looked up)
chain: MQPASAKWYDRRDYVFIEFCVEDSKDVNVNFEKSKLTFSCLGGSDNFKHLNEIDLFHCIDPNDSKHKRTDRSILCCLRKGESGQSWPRLTKERAKLNWLSVDFNNWKDWEDDSDEDMSNFDRFSEMMNNMGGDEDVDLPEVDGADDDSQDSDDEKMPDLE
notes: p23, human, 160 amino acids: folded domain (residues 1-110) and disordered C-terminal tail (residues 111-160); Used unlabeled, 15N-labeled or deuterated/15N-labeled; also called p23 WT; full-length p23; source: grown in LB or M9 medium, IPTG-induced; purified (His-trap, thrombin cut of the His-tag, size exclusion chromatography)
For B1, the binding result in assay [1] is “binds”.

B2: truncated p23 (1-119) (domain or fragment, human, UniProt Q15185 1-119, looked up)
chain: MQPASAKWYDRRDYVFIEFCVEDSKDVNVNFEKSKLTFSCLGGSDNFKHLNEIDLFHCIDPNDSKHKRTDRSILCCLRKGESGQSWPRLTKERAKLNWLSVDFNNWKDWEDDSDEDMSN
notes: p23, human, residues 1-119; the terminal 41 residues are deleted; Made by site-directed mutagenesis; also called truncated (1–119) mutant p23; C-terminal deletion mutant of p23; source: grown in LB or M9 medium, IPTG-induced; purified (His-trap, thrombin cut of the His-tag, size exclusion chromatography)
In the case of B2, the binding result in the assay with FKBP51 is “binds”.
On to B3, for which the binding result in assay [2] is “binds”.
